The source of these data is publication PMC10692919, “Characterization of erythroferrone structural domains relevant to its iron-regulatory function” (The Journal of Biological Chemistry, 2023).

Sequences and labels used below:
B3: BMP2/6 heterodimer (ligand)
chain 1: QAKHKQRKRLKSSCKRHPLYVDFSDVGWNDWIVAPPGYHAFYCHGECPFPLADHLNSTNHAIVQTLVNSVNSKIPKACCVPTELSAISMLYLDENEKVVLKNYQDMVVEGCGCR
chain 2: SASSRRRQQSRNRSTQSQDVARVSSASDYNSSELKTACRKHELYVSFQDLGWQDWIIAPKGYAANYCDGECSFPLNAHMNATNHAIVQTLVHLMNPEYVPKPCCAPTKLNAISVLYFDDNSNVILKKYRNMVVRACGCH
notes: bone morphogenetic protein 2 chain of the BMP2/6 heterodimer; bone morphogenetic protein 6 chain of the BMP2/6 heterodimer; also called heterodimer of BMP2/6; source: bought: RND Systems #7145-BP-010/CF; copies: 1 + 1
B4: BMP2 homodimer (ligand, UniProt P12643 283-396, looked up)
chain: QAKHKQRKRLKSSCKRHPLYVDFSDVGWNDWIVAPPGYHAFYCHGECPFPLADHLNSTNHAIVQTLVNSVNSKIPKACCVPTELSAISMLYLDENEKVVLKNYQDMVVEGCGCR
notes: bone morphogenetic protein 2; source: bought: RND Systems #355-BM-010/CF
B5: BMP6 homodimer (ligand, UniProt P22004 375-513, looked up)
chain: SASSRRRQQSRNRSTQSQDVARVSSASDYNSSELKTACRKHELYVSFQDLGWQDWIIAPKGYAANYCDGECSFPLNAHMNATNHAIVQTLVHLMNPEYVPKPCCAPTKLNAISVLYFDDNSNVILKKYRNMVVRACGCH
notes: bone morphogenetic protein 6; source: bought: RND Systems 507-BP-020/CF

Assay [1] deals with B3. The experiment in a line: SPR; scan of overlapping synthetic 18-mer peptides of the ERFE N terminus over BMP2/6, BMP2 or BMP6; 180 s injection, then buffer wash. Particulars: both partners purified.
Assay [2] has as its target B4. The description is as above. Particulars: both partners purified.
In assay [3] the target is B5. The description is as above. Particulars: both partners purified.
Assay [4] addresses B3. The experiment in a line: SPR; Biacore T200, CM5 chip; BMP2, BMP6 or BMP2/6 immobilised by amine coupling (50 μg/ml); purified bacterial untagged ERFE N-terminal variants or synthetic 53-mer segments as analyte; HBS-EP pH 7.4, 50 μl/min; KD = koff/kon at five concentrations. Particulars: both partners purified. Background: Surface plasmon resonance follows binding to a sensor surface in real time, without labels.

Assay [5] deals with B4. The assay is described as above. The settings on record: both partners purified.
The target in assay [6] is B5. Described as above. The settings on record: both partners purified.
The target of assay [7] is B3. Described as above. Particulars: both partners purified. This is another data set of the same source.
Assay [8] deals with B4. The assay is described as above. The settings on record: both partners purified. This is another data set of the same source.
Assay [9] deals with B5. The description is as above. Particulars: both partners purified. The source holds these as a separate data set.
The target in assay [10] is T1, Full-length ERFE (erythroferrone), 43-354, FLAG-tagged (human, UniProt Q4G0M1 43-354).
T1 construct: human erythroferrone (ERFE), mature molecule, residues 43-354; pcDNA3.1(+) backbone; Predominantly a hexamer at low concentration on native PAGE, a smear of 117-460 kDa at high concentration; also called Full length, 43-354; WT, 43-354; source: HEK293T, transiently transfected, in supernatant; not shown: FLAG, N-terminal, kept
The experiment in a line: SPR; Biacore T200, CM5 chip; BMP2, BMP6 or BMP2/6 immobilised by amine coupling (50 μg/ml); FLAG-ERFE variants made in HEK293T as analyte; HBS-EP (0.15 M NaCl, 3 mM EDTA, 0.005% P20, 0.01 M Hepes pH 7.4), 50 μl/min; KD = koff/kon at five concentrations; the paper calls the constants avidities where binding is presumed multivalent. Particulars: one partner purified.

Assay [11] concerns the target T1, Full-length ERFE (erythroferrone), …. The description is as above. Particulars: one partner purified. This is another data set of the same source.

B1: ERFE 18-mer peptide 133-150 (peptide, UniProt Q4G0M1 133-150, looked up)
peptide: LKEFQLLLKGAVRQRERA
notes: human erythroferrone (ERFE), residues 133-150; source: synthetic peptide (GenScript, ≥70% purity)
Turning to B1, the binding result with BMP2/6 heterodimer [1], with BMP2 homodimer [2] and in the assay with BMP6 homodimer [3] was “binds” each time.

B2: ERFE N terminus ΔCollagen, 43-148 del109-125 (bacterial) (domain or fragment, human, UniProt Q4G0M1 43-148, looked up)
chain: EPPPGNELPRGPGESRAGPAARPPEPTAERAHSVDPRDAWMLFVRQSDKGVNGKKRSRGKAKKLKFIIPPEALLKEFQLLLKGAVRQRE
notes: also called bacterial ΔCollagen N terminus; source: E. coli Rosetta2(DE3)pLysS, purified (Ni-NTA, TEV cleavage, reverse IMAC); not shown: His6, N-terminal, cleaved; MBP, N-terminal, cleaved
In the case of B2, the values for the Kd in the assay with BMP2/6 heterodimer [4], in the assay with BMP2 homodimer [5] and with BMP6 homodimer [6] were 50.1 nM, 3.13 nM and 0.756 nM, respectively. Moreover, the figures for the “pKd (-log Kd)” value with BMP2/6 heterodimer [4], in the assay with BMP2 homodimer [5] and with BMP6 homodimer [6] were 7.3, 8.7 and 9.2, respectively. Also, the koff – broadly, the first-order rate constant of dissociation – in the assay with BMP2/6 heterodimer [7] turned out to be 0.0052 s⁻¹; in the assay with BMP2 homodimer [8] it was 0.0056 s⁻¹; with BMP6 homodimer [9], 0.0085 s⁻¹. Further, the log kd with BMP2/6 heterodimer [7] is -2.29; with BMP2 homodimer [8], -2.29; with BMP6 homodimer [9] it was -2.17.
Turning to B3, in assay [10], the Kd (as a rule, the equilibrium constant for the complex coming apart) amounted to 0.277 nM. This molecule came in with a koff in assay [11] of 0.00022 s⁻¹.
B4 yielded a Kd in [10] of 0.445 nM. This molecule also gave a koff in assay [11] of 9e-05 s⁻¹.
In turn, B5 displayed a Kd in [10] of 0.817 nM. The molecule further registered a koff in assay [11] of 0.00022 s⁻¹.

B6: ERFE 18-mer peptide 97-114 (peptide, UniProt Q4G0M1 97-114, looked up)
peptide: KRSRGKAKKLKFGLPGPP
notes: also called cationic 18-mer peptide; source: synthetic peptide (GenScript, ≥70% purity)
Regarding B6, the binding result in the assay with BMP2/6 heterodimer [1], with BMP2 homodimer [2] and with BMP6 homodimer [3] was “binds” throughout.

B7: ERFE 18-mer peptide 73-90 (peptide, UniProt Q4G0M1 73-90, looked up)
peptide: AHSVDPRDAWMLFVRQSD
notes: human erythroferrone (ERFE), residues 73-90; source: synthetic peptide (GenScript, ≥70% purity)
For the molecule B7, the binding result with BMP2/6 heterodimer [1], with BMP2 homodimer [2] and with BMP6 homodimer [3] was “binds” throughout.

B8: ERFE 18-mer peptide 121-138 (peptide, UniProt Q4G0M1 121-138, looked up)
peptide: GPPGPIIPPEALLKEFQL
notes: human erythroferrone (ERFE), residues 121-138; source: synthetic peptide (GenScript, ≥70% purity)
As for B8, the binding result with BMP2/6 heterodimer [1], with BMP2 homodimer [2] and with BMP6 homodimer [3] was “binds” each time.
